# Data as given in FireProtDB.
# Details: Capra hircus; pH 7; 25 °C; GdnHCl; CD; sodium cacodylate 50 mM; NaCl 50 mM; reversible: yes; whole UniProt chain shown
protein,measurement,value
"Alpha-lactalbumin wild type, P00712 (protein) MMSFVSLLLVGILFHATQAEQLTKCEVFQKLKDLKDYGGVSLPEWVCTAFHTSGYDTQAIVQNNDSTEYGLFQINNKIWCKDDQNPHSRNICNISCDKFLDDDLTDDIVCAKKILDKVGINYWLAHKALCSEKLDQWLCEKL",denaturant m value,2.2 kcal/mol/M
same,denaturant midpoint (higher = more stable),2.6 M
same,unfolding free energy,5.7 kcal/mol
